Test results as given in the supplement of paper PMC9732359.
± gives the uncertainty stated by the source.

Test: protein stability index of a GFP-peptide fusion (yeast GPS) (PSI 1-4); higher = more stable; sorted into four equal gates, so the index is relative within each strain
Settings: pdr5∆
Procedure, shortened: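 Peptides tiling yeast proteins in 17-residue segments were fused downstream of GFP, with Cherry expressed from the same plasmid. As a pooled library in yeast, mid-log cultures grown in leucine-free medium were sorted into four equal gates by GFP/Cherry fluorescence ratio. Gate plasmids were PCR-amplified and Illumina-sequenced, and barcodes linked reads to strains. Each peptide received a protein stability index equal to the sum of each gate's read frequency times its gate number.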

| Sequence | protein stability index |
| --- | --- |
| EQTVEYMVSRAIRDGVI [RPN3] | 3.58 ± 0.1 |
| ERAAQKLRLDQLVIQQG [ISW2] | 2.52 ± 0.094 |
| ERGFACIPLVGISVPFH [FAS1] | 1.32 ± 0.07 |
| ERHQKQLNEKLVGRLRK [YCS4] | 3.18 ± 0.11 |
| ERLHELKKLQSDIESAN [SMC1] | 3.23 ± 0.12 |
| ERLKQLTPNEIKELEHL [SWP82] | 2.84 ± 0.083 |
| ERLMISSDAFEVDVCDK [RET1] | 2.63 ± 0.05 |
| ERLTNSLMMNGRNNGKK [RPS5] | 3.02 ± 0.088 |
| ERNAFLSDYEVLKFLTD [RPC17] | 3.04 ± 0.087 |
| ERNNIGEICKNYELEKI [YDL116W/NUP84] | 2.82 ± 0.095 |
| ERQQDELENFLDNFETK [YJL041W/NSP1] | 3.29 ± 0.21 |
| ERSKQLNEKFQELRKKV [SMC2] | 2.78 ± 0.24 |
| ERVIVVTGFAEVGPWGS [FAS2] | 1.36 ± 0.083 |
| ESDNYRLLPNGSNKAQI [YML031W/NDC1] | 3.18 ± 0.067 |
| ESEQELSLHTGFIENCN [MTR3] | 2.99 ± 0.067 |
| ESESERKYDLFQNLELE [SMC2] | 3.33 ± 0.077 |
| ESFAELMTKLNSFKLFK [RPC17] | 2.71 ± 0.086 |
| ESGKVFIGRLPIMLRSK [RPB2] | 2.67 ± 0.062 |
| ESLKNLNESRSQHKKIL [SMC3] | 3.05 ± 0.098 |
| ESLTNSNMFDNSADVDM [YGL100W/SEH1] | 3.57 ± 0.086 |
| ESMAYTAFQTQRTAQDR [YML031W/NDC1] | 3.27 ± 0.099 |
| ESNDRINKIVEILTNQQ [YGR119C/NUP57] | 2.77 ± 0.23 |
| ESNIKMTLEDNNVTSNP [SSN2] | 3.25 ± 0.11 |
| ESRAQNVFGQDNEDSDN [SWI3] | 3.16 ± 0.075 |
| ESRSFSPIPFPPLTYKN [PRP8] | 3 ± 0.08 |
| ESYYNWKYNNFLQKFEI [YML103C/NUP188] | 2.83 ± 0.052 |

| Sequence | protein stability index |
| --- | --- |
| ETAAMASLALAHVFVGT [RPN1] | 1.58 ± 0.047 |
| ETALEFLEKEKQLTLLR [SMC4] | 2.65 ± 0.074 |
| ETATLIMNELYRMKGGR [SMC3] | 3.21 ± 0.12 |
| ETFQDTFSGALGKQSSS [FAS2] | 3.32 ± 0.066 |
| ETLAYNSLKETLQDFHL [SNF2] | 3.04 ± 0.058 |
| ETLENNIVSVLTAGVNS [RPN11] | 2.65 ± 0.076 |
| ETLVLDEADKMIDLGFE [PRP28] | 3.22 ± 0.12 |
| ETLVLSYFSPINSSNEA [YCG1] | 1.55 ± 0.087 |
| ETQLKVVTRSKEAFEEE [SMC1] | 3.25 ± 0.15 |
| ETRNGKVKNQGADVTNT [YCS4] | 3.45 ± 0.17 |
| ETRRKTTTVLKRYANHT [RET1] | 2.98 ± 0.084 |
| ETVKLPRVSNQSNEDTF [RRI2] | 3.22 ± 0.14 |
| EVAQYLQEIYQTDAIKS [RPN5] | 2.44 ± 0.099 |
| EVESSDTIDNVKSKIQD [RPS31] | 2.78 ± 0.17 |
| EVLTYVNYLISNTMYSV [YJL039C/NUP192] | 2.35 ± 0.054 |
| EVPEGVTVSIKSRIVKV [RPL9A] | 1.86 ± 0.061 |
| EVYDFTHAVGNNCEDFV [FAS1] | 3 ± 0.18 |
| EWRKSAIANTLLYLRLK [PRP8] | 1.54 ± 0.051 |
| EYEELKEKIEKLSKSAT [SMC1] | 3.09 ± 0.22 |
| EYFGGESPVDVQSQVDS [FAS1] | 3.38 ± 0.1 |
| EYIELEYRDLYTNSVEL [YMR129W/POM152] | 3.28 ± 0.096 |
| EYKKHFPPNLEKGENPS [UBP6] | 2.76 ± 0.055 |
| EYKSLFVVGVDNVSSQQ [RPP0] | 2.79 ± 0.067 |
| EYKTSSDSLGPDTSNEI [SRB2] | 2.47 ± 0.089 |
| EYKVITSLQGTYEAIEI [YMR129W/POM152] | 2.99 ± 0.2 |
| EYLTLNDFNDLNIDWST [MED2] | 2.92 ± 0.062 |

| Sequence | protein stability index |
| --- | --- |
| EYMVQYIDEMYNHNDGG [RRI1] | 3.24 ± 0.076 |
| EYNKPNSEKFVFLLTTR [ISW2] | 2.58 ± 0.099 |
| EYSPEILQIREEIPSKS [RRP6] | 2.79 ± 0.08 |
| EYSYVDSNMDSISSVVS [RPN4] | 3.26 ± 0.066 |
| EYYRIQKQLPQKTRVKL [ESC2] | 2.77 ± 0.05 |
| FANNHFLNSNAVVVGTG [COR1] | 1.91 ± 0.061 |
| FASLRVLPDADVKLLHS [YJL039C/NUP192] | 2.11 ± 0.1 |
| FAWSKPSTGSNLQQQQQ [YGR119C/NUP57] | 3.06 ± 0.063 |
| FDENIARDIISHNFQNA [PCI8] | 2.77 ± 0.046 |
| FDFLMNMPNCDYLTLNK [RPN2] | 2.31 ± 0.068 |
| FDGFLFGSRVMIAKEVK [FAS1] | 1.56 ± 0.18 |
| FDIIEESFKGLQPFWFR [ECM29] | 2.58 ± 0.15 |
| FDNYQRNNFLAENSHTQ [PUP1] | 3.26 ± 0.075 |
| FDTVSNKLFTEPIKLEP [YMR129W/POM152] | 2.7 ± 0.065 |
| FEASCMEGQKLDDPVLN [YJR042W/NUP85] | 1.76 ± 0.086 |
| FEGTPPFSLTYVRTEET [YMR129W/POM152] | 2.63 ± 0.056 |
| FEGWGHEYIRHLALEIG [RPN1] | 2.06 ± 0.071 |
| FEKKLSIIKAKLPLLNE [YML103C/NUP188] | 1.98 ± 0.13 |
| FELFDNKTAHLSIPGKS [SNU114] | 2.11 ± 0.055 |
| FEQDSHLRYQPDGVVVH [SNF6] | 3.1 ± 0.078 |
| FEQTAFSRHAQQQTSTF [SIR4] | 2.32 ± 0.092 |
| FETFLVDVNNKFIALCE [SIN4] | 3.05 ± 0.049 |
| FEYVLYPSKTLKTDGVR [FAS2] | 2.96 ± 0.069 |
| FFLQRKLRSELGYKDTS [BRR2] | 1.53 ± 0.071 |
| FFNGKALNNAIPGGPKF [PRP8] | 3.02 ± 0.16 |
| FFRNKLKYHDFLRKATA [RPL16B] | 2.48 ± 0.086 |

| Sequence | protein stability index |
| --- | --- |
| FGHLMHYGNEHIRRMVP [RPN1] | 1.82 ± 0.039 |
| FGNIMDNLLEMSDHSLD [RRP6] | 2.58 ± 0.065 |
| FGPHVDVNDVLTKYIRS [GRR1] | 3.2 ± 0.061 |
| FGQASGASTGNANTGFS [YGL172W/NUP49] | 3.39 ± 0.17 |
| FGQDVSPMINSTSSGKV [SNM1] | 3.32 ± 0.077 |
| FGSADDTYPYLTGEWST [FAS1] | 1.32 ± 0.047 |
| FGSKPTGATSLFGSSNN [YGL172W/NUP49] | 3.59 ± 0.11 |
| FGYPETIANSIILHFAN [YMR153W/NUP53] | 2.23 ± 0.067 |
| FHGTSTKANDKNESATI [FAS2] | 2.8 ± 0.094 |
| FHSEPDRDENWIHVSCL [LIN1] | 3.27 ± 0.054 |
| FICSIIQTVVISLLALP [YML031W/NDC1] | 1.36 ± 0.076 |
| FIDHHAAIRQPTRYVLI [POP1] | 2.08 ± 0.073 |
| FIDSICKLFDKISFNLR [SRB8] | 2.23 ± 0.046 |
| FIKVVNYNHLLPTRYTL [RPL27A] | 2.25 ± 0.076 |
| FILLDRLRQFNLQPIST [SMC4] | 1.56 ± 0.037 |
| FINNVLSNPSNQNICTS [GRR1] | 2.31 ± 0.033 |
| FITAKDKYKLYPVRIPR [YJR042W/NUP85] | 2.73 ± 0.087 |
| FIYGMSAKDHPKVKEIK [PRP8] | 3.12 ± 0.19 |
| FKDRFKDEPVQNDILQE [FAS2] | 3.03 ± 0.15 |
| FKGHSHIVQDCTLTADG [ASC1] | 2.04 ± 0.087 |
| FKHGPMSLINDAMVTRT [SMD2] | 2.43 ± 0.09 |
| FKIHTAKVKKTGEFDFE [RPT4] | 3.06 ± 0.12 |
| FKIWHGEINKICMESLF [PCI8] | 1.46 ± 0.056 |
| FKKAAPSPISHVAEIRS [RPB2] | 1.94 ± 0.046 |
